The results in this text go back to patent US6114296.

The target of assay [1] is Variant I: V221S+N222S+Q223T (Humicola insolens).
Assay [2] addresses Variant II: V240P+Q241P (Humicola insolens).
Assay [3] addresses Humicola insolens 43 kD endoglucanase (Humicola insolens).

For “Savinase protease (from UniProt P29600) (enzyme)”, the Residual Activity, % DAA (25° C., 5 d storage in liquid detergent with protease) in assay [1] came out at 83 % DAA; in assay [2], 81 % DAA; in assay [3], 63 % DAA.
